Measured values taken from patent KR20120135868A (dated 2012).
Residue numbers refer to the chain shown, from its start. Blank lines part the entries; values can stand above or below the binder they belong to.

Molecular target: T1, 인간 FcεRI의 α 서브유니트(FcεRIα)의 가용성 단편 (human, UniProt P12319 26-205, limits assumed)
T1 construct: domain: 가용성 단편 (soluble fragment); also called soluble sFcεRI; sFcεRI
T1 sequence (looked up): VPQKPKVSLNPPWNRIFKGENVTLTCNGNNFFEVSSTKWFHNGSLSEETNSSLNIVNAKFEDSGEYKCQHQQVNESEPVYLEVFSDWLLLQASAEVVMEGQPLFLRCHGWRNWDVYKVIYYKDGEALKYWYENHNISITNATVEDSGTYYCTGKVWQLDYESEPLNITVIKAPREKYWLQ
Test: phage ELISA, scFv on phage, selected after panning on coated FcεRI

binding result: binds
B1: NPB 312 scFv (scFv, V domains shown)
VH: EVQLVQSGAEVKKPGESLKISCEGSGYRFSSYWIAWVRQKPGKGLEWMGIIYPYDSDTKYGPSFGGQVTISADKSINTAYLEWSSLKASDTAMYYCARLALIRGSIIFDYWGLGTLVTVSS
VL: QSALTQPRSVSGSPGQSVTISCTGSRGDVGGYDFVSWYRQYPGEAPQLIIYDVSGRPSGVPDRFSGSKSGNTASLTISGLQPEDEADYYCSSYAGSEIYVFGTGTKVTVL

binding result: binds
B2: NPB 309 scFv (scFv, V domains shown)
VH: B1 VH
VL: QSVLTQPSSVSGAPGQRVTISCTGSSSNIGADYDVHWYQLVSGAAPKLLIYGYTNRPSGVPDRFSGSKSGTSASLVIAGLQAEDEADYYCQSYDSSLSEVVFGGGTKLTVL

binding result: binds
B3: NPB 306 scFv (scFv, V domains shown)
VH: B1 VH
VL: QSVLTQPSSVSGAPGQRVTISCTGSSSNIGAGYDVHWYQHLPGTAPKLLIYGINIRPSGVPDRFSGSKSDTSASLAITALQAEDEADYYCQSYDSSLRSVVFGGGTKLTVL

binding result: binds
B4: NPB 304 scFv (scFv, V domains shown)
VH: EVQLLESGGGLVQPGGSLRLSCAASGLAFSDYYMSWVRLAPGKGLEWVSVISPGSGSKYYADSVKGRFTISRDNSKNTLYLQMNSLRAEDTAVYYCARYVGGMMMKRDFYYAMDVWGQGTLVTVSS
VL: QSVLTQPPSASGTPGQRVTISCSGSSSNIGSNAVNWYQQLPGTAPKLLIYYDSHRPSEVPDRFSGSKSGTSASLAISGLRSEDEADYYCGTWDSSLSGYVFGGGTKLTVL

binding result: binds
B5: NPB 305 scFv (scFv, V domains shown)
VH: B4 VH
VL: QSVLTQPPSASGTPGQRVTISCTGSSSNIGNNDVSWYQQLPGTAPKLLIYSNNQRPSGVPDRFSGSKSGTSASLAISGLRSGDEADYYCGTWDYSLSGYVFGGGTKLTVL

binding result: binds
B6: NPB 302 scFv (scFv, V domains shown)
VH: EVQLVESGAEVKKPGSSVKVSCKASGGTFSSYAISWVRQAPGQGLEWMGRIIPILGIANYAQKFQGRVTITADKSTSTAYMELSSLRSEDTAVYYCARVNPFGYYYAMDVWGQGTTVTVSS
VL: QSVLTQPPSASGTPGQRVTISCSGSTSNIGGNSVNWYQQLPGAAPKLLIYANIQRPSGVPDRFSGSKSGTSASLAISGLQSEDEADYYCASWDDSRNGYVFGTGTKVTVL

binding result: binds
B7: NPB 313 scFv (scFv, V domains shown)
VH: B6 VH with E6Q
VL: DIQMTQSPSSVSASVGDRVTIPCRASQGISSWLAWYQQKPGKAPKLLIYAASNLQSGVPSRFSGSGSGTDFTLTISSLQPEDSATYYCQQTDSFPLTFGGGTKVEIK

binding result: binds
B8: NPB 303 scFv (scFv, V domains shown)
VH: EVQLVQSGAEVKKSGESLKISCKGFGYTFTRNWIGWVRQMPGKGLEWMGIIYPGDSDTRYSPSFQGQVTISADKSISTAYLQWSSLKASDTAMYYCARDVGNGDYGLDVWGQGTTVTVSS
VL: QSALTQPASVSGSPGQSITISCTGTSSDIGGYDFVSWYQQHPGKAPKLIIYDVTRRPSEISNRFSASKSGNTASLTISGLQAEDEADYYCSSYTSSSTPYVFGTGTKVTVL

binding result: binds
B9: NPB 314 scFv (scFv, V domains shown)
VH: EVQLVQSGAEVKKPGESLKISCKGSGYTFTKYWIGWVRQMPGKGLEWMGIIYPGDSDTTYSPSFQGQVTISADKSISTAYLQWSSLKASDTAMYYCAKDNPFTGSFDIWGQGTMVTVSS
VL: QSALTQPASMSGFPGQSITISCTGTRDDVGNYDLVSWYQQQPAKAPKLLIYEDNKRPSGVSSRFSGSKSGSTASLTISGLQTEDEADYYCCSYAGDYTYVFGTGTKVTVL

binding result: binds
B10: NPB 307 scFv (scFv, V domains shown)
VH: B9 VH with P14S, S25F, T28R, K31S, T59R, Q111L
VL: QSALTQPRSVSGSPGQSVTISCTGTSNDVGGYTYVSWYQQHPGKAPKLMIYDVSKRPSGVPDRFSGSKSGNTASLTISGLQAEDEADYYCSSYAGSYTWVFGGGTKLTVL

binding result: binds
B11: NPB 308 scFv (scFv, V domains shown)
VH: B9 VH
VL: B10 VL
